Test results from the nanobody polyreactivity screen of Harvey et al. (2022).

Experiment: yeast display, Sf9 membrane polyspecificity reagent, FACS + sequencing; frameworks hold sequencing errors
Procedure, shortened: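 Genes from sorted yeast were amplified by colony PCR, read by MiSeq 2 × 250 sequencing and filtered on CDR length. These cells carried a synthetic nanobody library in Saccharomyces cerevisiae BJ5465 and were sorted by FACS into low and high (top ~1%) gates on anti-HA and streptavidin fluorescence. Polyreactivity is labelled according to the gate of origin.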

| Sequence | polyreactivity (PSR sort gate) |
| --- | --- |
| QVQLVESGGGLVQAGGSLRLSCAASGSTSGIYAMGWYRQAPGKERELVARINSGGSTYYADSVKGRFTISRDNAKNTVYLQMNSLKPEDTAVYYCNRVPNKYGRPIDSRWRGDYWGQGTQVTVSS | low polyreactivity |
| QVQLEESGGGLVQAGGSLRLSCAASGSTIKTYATMGWYRQAHGKERELVAAITSGSSTNYADSVKGRFTISRDTAMNTDYLQMNSLKPEDTAVYYGAADDYYNWYLGEPGDYLGQGTQVTVSS | low polyreactivity |
| QVQLVESGGGLVQEGGSLRLSCAASGIIFSRYAMGWYRPAPGKERELVAAITRSGGDTYYADSVKGRFTISRDNAKNTVYLQMNSLNPEDTAVYYCAAERTWYPWVATGYYWGQGTQVTVSS | low polyreactivity |
| QVQLVESGGGLVQAGGSLRLSCAASGSISVVYDMGWYRQAPGTERELVAAIDWSGGSTYYADSVKGRFTISRDNAKNTVYLQMNSLKPEDTAVYYCAADDKVRYYWGQGTQVTVSS | low polyreactivity |
| QGQHVESGGGLVQAGGSLPLSCAASGFIFNLYAMGWSRQAPGKERELVAAISSGGGTSYADSVKGRFTISRDNAKNTVYLQMNTLKPEDTADYYCAARAWYRVSAYDYWGQGTQVTVSS | high polyreactivity |
| QVQLVESGGGLVQAGGSLRLSCAASGSIFYVNAMGWYRQEPGKERELVAAISYRGGSTYYADSVKGRFTISRDNAKNTVYLQMNSLKPEDTSVYYCAKRLYGSYHSDYWGQGTQVTVSS | high polyreactivity |
| QVQLVESGGGLVQAGGSLRLSSAASGRIFWTNAMGWYRQAPGKERELVAGITWRGGSTYYADSVKGRFTISRDNAKNTVSLQMNSLKPEDTAVYYCASRQGWYSGFDYWGQGTQVTVSS | high polyreactivity |
| QVQLVESGGGLVQAGGSLRLSCAASASIFYIYGIGWYRQAPGKERELVARISSGDRTNYADSVKGRFTISRDNAKNTVYLHMNSLKAEDTAVYYCNARVSYYLGRYYWGQGTQVTVSS | high polyreactivity |
| QVQLVESGGGLVQAGGSLRLSCAASGSIFVYYAMGWYRQAPGKERELVATITNDGSTYADSVKGRFTISRDNAKNTVYLQMNSLKPEDTAVYYCAAKIPSDRTIYDYWGQGTQVTVSS | low polyreactivity |
| QVQLEDSGGGVVQAGGSLRLSCAASGSIYYPYAMGWNRQAPGKERELVARITSGGSTHYADSVKGRFTISRDNAKNTVYLQMNSLKPEETAVYYCNADYWFVESDYWGKGTQVTVSS | low polyreactivity |
| QVQLVESGGRLVQAGRSLRLSCAASGFTFYDYAMVWYRQEPGKERELVARINGGGGTNYADSVKGRFTNSRDNAKNTVYLQMNSLKPEDTAVYYCAAEFGSRPPYDYWGQGTQVTVSS | low polyreactivity |
| QVQLVESGGGLVQAGGSLRLSCAASGRTFWIYTMGWYRQAPGKEREFVAAISIRGGSTYYADSVKGRFTISRDNAKNTVYLQMNSLKPEDTAVYYCAADGGYSLWADDDYWGQGTQVTVSS | low polyreactivity |
| QVQLVESGGRLVQAGGSLRLSCAASGFIFYSYDMGWYRQAPGKERELVAAIDSRGVNTYYADSVKGRFTISRDNAKNTVYLQMNSLKPEDTAVYYCAAEVVYPVYEYDYWGQGTQVTVSS | low polyreactivity |
| QVQLVESGGGLVQAGGSLRLSCAASGNIFDTYVMGWYRQAPGKERELVAAITSDGGTYYADSVKGRFTSSRDNATNPVYLQMNSRQPEDTAVYYCAADTYYYPIHDYWGQGTQVTVSS | low polyreactivity |
| QVQLGESGGGLVQAGGSLRLSCAASGSTFYPYAIGWYRQAPGKERELVARITRGDGSTYYADSVKGRFTISRDNAKNTVYVQMNSLKPEDTAVYYCIRVEYYTVWGYDYWGQGTQVTVSS | low polyreactivity |
| QVQLVESGGRLVQAGGSLRLSCAASGFIFGTYAMGWYRQAPGKEREFVAAITRSGSSTYYADSVKGRFTISRDNAKNTVYLQMNSLKPEDTAVYYCAADLTRGRFRYYYWGQGTQVTVSS | high polyreactivity |
| QVQLVESGGGLVQAGGSLRLSCAASGNNLRYYAMGWYRQAPGKERELVAAITSSGGSTYYADSVKGRFTISRDNAKNTVYLKMNSLKPEDTAVYYCAAVFSYSRYNYWGQGTQVTVSS | high polyreactivity |
| QVQLVESGGGLVQAGGSLRLSCAASGRIFSSYAMGWYRQAPGKERELVADITGRYGSTYYADSVKGRFTISRDNAKNTVYLQMNSLKPEDTAVYYCAASRFYFPRTFGGYPKLASYAYWGQVTQVTVSS | low polyreactivity |
| QVQLVESGGGLVQAGGSLRLSCAASGFTFIRYAMGWYRQAPGKEREVVAAISWRVGITYYADSVKGRFTISRDNAKNTVYLQMNSQKPEDTAVYYCARDYRNPPFAYEYWGQGTQVTVSS | low polyreactivity |
| QVKLVESGGGLVQAGGSLRLSCAASGSTSRDNAMGWYRQAPGKERELVGAITVIDGTTYYADSVKGRFTISRDNAKNTVYLQMNSLKPEDTAVYYCAADTIWYEYYYWGQGTQVTLSS | low polyreactivity |
| QVQLVESGGGLVQAGGSLRLSCAASGSTFINYARGWYSQAPGKERELVAVITSDDGSTYDADSVKGRFTISRDNAKNTVYLQMNSLKPEDTAVYYCAAYYYDQRYRPGPWYDYWGQGTQVTVSS | low polyreactivity |
| QVQLVESGGGLVQAGGSLRLSCAASGRTFTPYAMGWYRQAPGKERELVAAINSDGSTNYADSVKGRFTISRDNAKNTVYLQMNSLKPEDTAVYYCAAGYSLEGDYWGQGTQVTVSS | low polyreactivity |

| Sequence | polyreactivity (PSR sort gate) |
| --- | --- |
| QVQLVESGGGLVQAGGSLRLSCTASGRTLYNYTMGWYRQAPGKERELVATINFSGGSTYYADSVKGRFTISRDNAKNTVYLQMNSLKPEDTAVYYCNARGYHYAYKGAYLGDYYWGQGTQVTVSS | low polyreactivity |
| QVQLVESGGGVVQAGGRLRLSCAASGSIFTYYAMGWYRQAPGKERELVAAISYGGGSTYYADSVKGRFTISRDTAKNTVYLQMNSLKPEDTAVYYCNRVVGVKYGYWGQGTQVTVSS | high polyreactivity |
| QVQLVESGGGLVQAGGSLRLSCAASGSTFGYNAMGWYRQAPGKERELVAAITWSGGSTYYADSVKGRFTISRDNAKNTVYLQMNSLKPEDTAAYYCAADDWYNSKWHYYYWGQGTQVTVSS | low polyreactivity |
| QVQLVESGGGLVQAGGSLRLSCAASGRTFNIYAMGWYRQAPGKERELVAAITWRSGSTYYADSVKGRFTISRDNAKNTVYLQMNSLTPEDTAVYYCAAEQWSCVPEFDYWGQGTQVTVSS | high polyreactivity |
| QVQLGESGGGLVQAGGSLRLSCAASGSIFGYYAMGWYRQAPGKERELVAAINYSGVSTYYADSVKGRFTISRDNAKNTVYLQMNSLKPEDTAVYYCAALRLYEPGPYGGPLRYGYWGQGTQVTVSS | high polyreactivity |
| QVQLVESGGGLVQAGGSLRLSCAASGSTFNFNAMGWYRQAPRKERELVAAISSSGGSTYYADSVKGRFTISRDNAKNTVYLQMNSLKPEDTAVYYCATVRRKSPLYYYWGQGTQVTVSS | high polyreactivity |
| QVQLVESVGGLLQAGGSLRLSCAASGSIFDVYTMGWYRQAPGKVRELFAAINTGGGSTYYADSVKGRFTISRDNAKNTVYCQMNSLKPEVTAVYYCAASVYHYGPLYYWGQGTQVTVSS | low polyreactivity |
| QVQLVESGGGLVQAGGSLRLSCAASGRIFYTNAMGWYRQAPGKERELVATISSSGGRTYLRNSVKGRFTLSRDNAKNTVYLQMNSLKPEDTAVDYCAAGWSYPVRNIYYYWGQGTQVTVSS | high polyreactivity |
| QVQLVESGGGLVQAGGSLRLSCAACGSTFFPYAMGWYRQAPGKERELVAAITSGGRTKYADSVKGRFTISRDNAKNTVYLQMNSLKPEDTAVYYCAARGLIKEYGGPYRRFGYWGQGTQVTVSS | high polyreactivity |
| QVQLVESGGGLVQAGGSLRLSCAASGRIFWYYAMGWYRQAPGKERELVDAISVDGGSTYDADSVKGRFTISRDNAKNTVYLQMNSLKPEDTAIYYCAAQKYPGFTHGYWGQGTQVTVSS | low polyreactivity |
| QVQIVESGGGLVQAGGSLRLSCAASGFTIPPYTMGWYRQAPRKEREFVATITASGGSTYYADSVKGRFTISRDNAKNTVYLQMNSLNPEDTAVYYCNADYYSLYFFAWYRTNDFWGQGTQVTVSS | low polyreactivity |
| QVKLVESVGGLVQAGGSLRLTCAASGIIFPVYAMGRYRQAPGKERQLVSAITYSGDRTYYADSVKGRFTISSDNAKNTVYLQMHSLKPEDTAVYYCNARFGVWPYFYNEDDYWGQGTQVTVSS | low polyreactivity |
| QVQLVESGGGLVQAGGSLRLSCAASGRIFVPYLMGWYRQAPGKERELVASISDSDTSTYYADSVKGRFTISRDNAKNTVYLQMNSLKPEDTAVYYCNVDYWGQGTQVTVSS | low polyreactivity |
| QVQLVESGGGLVQAGGSLRLSCAASGRTLATYAMGWYRQAPGKERELVADISWRGGTTYYADSVKGRFTISRDNAKNTVYLQMNSLKPEDTAVYYCAAVRKQGSGFDYWGQGTQVTLSS | high polyreactivity |
| QVQLVESGGRLVQAGGSLRLSCAASGRTFYRYVMGWYRQAHGQVRELVAAISEGGGSTFYADSVKGRFTISRDNAKNTVYLQLNSLKPEDTAVYYCAADYYVRGGFFRYDYWGQGTQVTVSS | low polyreactivity |
| QVQLVESGGGLVQAGGSLRLSCAASGSIFGYYTMGWYRQAPGKERELVARITRGGSTYYADSVKGRFTISRDNAKNTVYLQMNSLYPEDTSVYYCNAEIWTEGGYWGQGSQVTVSS | low polyreactivity |
| QVQLVESGGGLVQAGGRLRLSCAASGSTFVLNDRGWYRQPPGKEREFVAAIDTSGGTTSYADSVKGRFTISRDNAKNTVYLQMNSLKPEDTAVYYCAALWFTRVHLFDSWGQGPQVTVSS | low polyreactivity |
| QVQLVESGGCLVQAGGSLRLSCAASGSIFRYYAMGWNRQAPGKERELVAAISSSGDNTYYADSVKGRFTISRDNAKNTVYLQMNSLKPEDTAVYYCAVRGERRYIYDYWGQGSQVTVSS | high polyreactivity |
| QVQLVESGRGLVQAGGSLSLSCAASGITFGNYAMGWYRQAPGKERELVAAITGSGGRTYYADSVKVRFTISRDNAKNTVYLQMNSLKPEDTAVYDCAAKQYTRFGYYYWGQGTQLTVSS | high polyreactivity |
| QVQLVESVGGLVQAGGSLRLSCAASGRTFRTYTMGWYRQAPGKERGLVAAITSTGSTYYADSVKGRFTISRDNAKNTVYLQMNSLKPEDTAVYYCNVVRRLRPYRGTGPNLEYYYWGQGTQVTVSS | high polyreactivity |
| QVQLVESGGGLVQAGGSLRLSCAASGRTLTRNAMAWYRQAPRTERELVAVITSSGSRTYYADSVKGRFTISRDNAKNTVYLQMNSLKPEDTAVYYCAAKVDASDVRRSRAGRYDYWGQGTQVTVSS | high polyreactivity |
